Measurements: patent US20100144025A1

Legend:
[1] = target: HLA-A24 molecule (the product of HLA-A*2402 gene) (human)
[2] = target: HLA-A2 molecule (the product of HLA-A*0201 gene) (human)
[3] = target: HLA-A2 molecule (the product of HLA-A*0206 gene) (human)

Binder	-log Kd [1]	-log Kd [2]	-log Kd [3]
PMSTYGWNL (modifications not checked) [SEQ ID NO 22]	7.62 -log Kd	–	–
RLITVNPIV (modifications not checked) [SEQ ID NO 31]	–	5.64 -log Kd	–
RTLRVLNLV (modifications not checked) [SEQ ID NO 49]	–	–	5.97 -log Kd
KLMKITAEW (modifications not checked) [SEQ ID NO 16]	7.21 -log Kd	–	–
LVISGLFPV (modifications not checked) [SEQ ID NO 41]	–	–	6.61 -log Kd
IQKETLVTF (modifications not checked) [SEQ ID NO 18]	7.24 -log Kd	–	–
HWPKSHTLW (modifications not checked) [SEQ ID NO 7]	8.66 -log Kd	–	–
PFPQSNAPI (modifications not checked) [SEQ ID NO 5]	8.22 -log Kd	–	–
DWIPLALTI (modifications not checked) [SEQ ID NO 25]	8 -log Kd	–	–
PLNEAIMAV (modifications not checked) [SEQ ID NO 29]	–	6.49 -log Kd	–
YMPSVIEKM (modifications not checked) [SEQ ID NO 15]	7.17 -log Kd	6.58 -log Kd	–
NLVRLQSGV (modifications not checked) [SEQ ID NO 30]	–	4.7 -log Kd	–
SVIEKMEAL (modifications not checked) [SEQ ID NO 48]	–	–	6.37 -log Kd
GFLNEDHWF (modifications not checked) [SEQ ID NO 20]	6.76 -log Kd	–	–
AYNHALSEL (modifications not checked) [SEQ ID NO 23]	7.68 -log Kd	–	–
ALSELPETL (modifications not checked) [SEQ ID NO 12]	5.5 -log Kd	6.05 -log Kd	–
ALVAFLRFL (modifications not checked) [SEQ ID NO 21]	5.68 -log Kd	–	–

Binder	-log Kd [1]	-log Kd [2]	-log Kd [3]
YVVIAILTV (modifications not checked) [SEQ ID NO 47]	–	–	5.86 -log Kd
QILEENVEV (modifications not checked) [SEQ ID NO 50]	–	–	5.61 -log Kd
AFSGVSWTM (modifications not checked) [SEQ ID NO 2]	8.19 -log Kd	–	–
SLRPQPTEL (modifications not checked) [SEQ ID NO 34]	–	5.05 -log Kd	–
AWLVHRQWF (modifications not checked) [SEQ ID NO 10]	8.39 -log Kd	–	–
ALHQVFGAI (modifications not checked) [SEQ ID NO 38]	–	6.77 -log Kd	–
ILIRTGLLV (modifications not checked) [SEQ ID NO 33]	–	6.53 -log Kd	–
FQPESPSKL (modifications not checked) [SEQ ID NO 36]	–	6.31 -log Kd	–
LALLAAFKV (modifications not checked) [SEQ ID NO 43]	–	–	6.47 -log Kd
GLNPTAIFL (modifications not checked) [SEQ ID NO 8]	6.39 -log Kd	–	–
ALHQVFGAI (modifications not checked) [SEQ ID NO 19]	6.05 -log Kd	–	–
IVLEHGSCV (modifications not checked) [SEQ ID NO 27]	–	5.74 -log Kd	6.02 -log Kd
TLYAVATTF (modifications not checked) [SEQ ID NO 11]	7.58 -log Kd	–	–
WYAQIQPHW (modifications not checked) [SEQ ID NO 1]	8.64 -log Kd	–	–
ELPETLETL (modifications not checked) [SEQ ID NO 9]	7.01 -log Kd	6.32 -log Kd	–
HVLGRLITV (modifications not checked) [SEQ ID NO 45]	–	–	6.25 -log Kd
FLIDGPETA (modifications not checked) [SEQ ID NO 35]	–	6.05 -log Kd	–
